28 sequences from a protein production outcome set (Wang et al. 2014) can be followed below.
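Also: failed if final PepcDB status was selected cloned or expressed and not failed if soluble or beyond.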

The data set in a line: label from the status in PepcDB records.
Take “ATGTTGGGCATGATCAGGAACTCACTGTTCGGGAGCGTGGAAACGTGGCCTTGGCAGGTTCTAAGCACCGGGGGCAAGGAAGATGTCTCCTATGAGGAAAGAGCCTGTGAAGGGGGCAAGTTTGCTACTGNGGAAGTGACAGACAAGCCAGTGGATGAGGCTCTCCGGGAAGCGATGCCCAAGATCATGAAGTATGTGGGTGGCACCAATGACAAAGGAGTCGGCATGGGTATGACAGTCCCTGTCTCTTTTGCCGTGTTTCCCAATGAAGATGGCTCCCTACAGAAGAAACTGAAAGTCTGGTTCCGGATTCCGAACCAATTTCAAGGCAGCCCACCGGCCCCCAGTGACGAGAGTGTGAAGATCGAGGAACGGGAGGGCATCACTGTCTATTCCACGCAATTTGGAGGCTATGCCAAGGAAGCAGACTATGTTGCTCATGCCACCCAGCTACGGACCACACTGGAGGGCACACCAGCGACCTACCAGGGTGATGTCTACTACTGTGCCGGATATGACCCTCCCATGAAGCCCTATGGACGCCGTAACGAGGTCTGGCTTGTGAAGGCATGA”: the protein production result is recorded as “not failed”.

With “AVEARQSATEAERRRHRLEQILKTVPSCVVQLDRDGQFVFANQRAIDVLGLSQSELKDRLYNDPEWEIRDLDGHPIPDAELPFRQVLETGQPLSDARHTIHWPDGTEKVLSVNGAPLFDDDGAVESVVCTLTDIT”, the protein production result is on record as “not failed”.

With “AWQAAVASNEPFGEAQLAQRIRRYLPEQGQLFVGNSLVVRLIDALAQLPAGYPVYSNRGASGIDGLIATAAGVQRASARPTLAIVGDLSALYDLNSLALLRQASAPLVLIVVNNNGGQIFSMLPTPQDERRQFYLMPQDVDFSHAAVMFGLAYHRPDDWPSLDEALAGAWRRAGATVIELAVNETDGAQTLQQLLAQVSRL”, the protein production result was “failed”.

For “AYPGFELDIDLALPGRGVTALFGHSGSGKSTCLRCIAGLEKAAEGEVTINGETWQDSRRNLFVAPHRRALGYVFQDANLFRHLTVRRNLAFGLKRIAAAERRVELEQACALLGIEHLLERMPERLSGGEQQRVGIARALLTSPRLLLMDEPLASLDLKRKGEILPYLERLHEELDIPVLYVSHSPDEVARLADHLVLLENGKVRASGPIGETLARVDLPLALDDDAGVVIEGTVSDHDPAYGLLTLVLPGSALQMRVAHAPLAPGKRLRFKVQARDVSLNLRDDAQSSILNRLPVRVLELVDTDTAAHVLVRLDAGGNPLLARITRYSRDQLQLR”, the protein production result is on record as “failed”.

Consider “CAAIAALSAVGLPSDRFSFEGFLPSKSSQRLLQLEKLKDETQTLIFYEAPHRILDCVTDMMHIFGEDRPVGFAREITKTFETIKKMTLKELVSFIQNDHHQQKGEIVLIVGGNPVNK”, for which the protein production result is “failed”.

On to “CLEDILSATKMVINLCLPQFRPRIHCNKISADGYEVENLISEDLTKRSHGFRTEYFIKPPVYVTVSFPFNVEICRINIDLTAGGGQNVTGLEMYTSASSSRVSWNTPQCRTLGPAEPSVPDKEAFTLVGKVLLKNQSQVVFSHRGFKARPPFGAMEATLPSPAVVAQELWNKGALSLSHVAHLRICITHVTGGGIPCIKRLEVWGQPAKTCSQEVIDSILLVTSENLPQDVALQAPALPMESDCDPGDQPESQQAPSSLQKLAEIIQDVPEEFLDPITLEIMPCPMLLPSGKVIDQSTLEKCNRSEATWGRVPSDPFTGVAFTPHSQPLPHPSLKARIDHFLLQHSIPGCHLLGRAQTALAVIPSSIVLPSQKRKIEQAEHVPDSNFGVNASCFSATSPLVLPTTSEHTAKKMKATNEPSLTHMDCSTGPLSHEQKLSQSLEIALASTLGSMPSFTARLTRGQLQHLGTRGSNTSWRPGTGSEQPGSILGPECASCKRVFSPYFKKEPVYQLPCGHLLCRPCLGEKQRSLPMTCTACQRPVASQDVLRVHF”, for which the protein production entry is “not failed”.

With “CSACGETVMPGSRKLEYGGQTWHEHCFLCSGCEQPLGSRSFVPDKGAHYCVPCYENKFA”, the protein production entry is on record as “not failed”.

Take “CSPVRERRLEHQLEPGDTLAGLALKYGVTMEQIKRANRLYTNDSIFLKKTLYIPILTEPRDLFN”: the protein production entry is reported as “not failed”.

Take “DAHSTIDSRIIHFKLEFANEFLAEKLQVALQSPVYNIYRLRIIDGKPYVLEQTYMSTDVIPGITEDILQKSIYNYIEGKLGLHIASATKILRASSSSENEQHYLQLLPTEPVFEVEQVAYLDNGTPFEYSISRHRYDLFE”: the protein production result was “not failed”.

With “DAPQGAVIILPGDAESPDWPDTVGPLRRKFPDVGWSSLSITLPDAQDNTLLPREPDAAAGDANAAKPEETPKDAAAKAPDPAAEAEALAAVATAKAAADEERNKAQAELIFARIESAISFAQQNKARNIVLLGHSSGAYWAARFLNERPSPAVQKLVMVAA”, the protein production entry was “failed”.

Take “DARKGNASAPVVAVEFFDYQCGYCKGALPELAAALSGRNDVAVVMKEFPILGSTSEAAARLALAVRAEHGDEAYLGFHNALLSHKGGLNEAALSILAGAAGYDYPALVARGRQDDITSIIDGNRRLAQALSISGTPAFVFRDGEVVPGMMAADRLTAAFDRLSASTAAAQ”: the protein production result was “failed”.

Consider “DDANVVRDRDLEVDTTLKSLSQQIENIRSPEGSRKNPARTCRDLKMCHSDWKSGEYWIDPNQGCNLDAIKVFCNMETGETCVYPTQPSVAQKNWYISKNPKDKRHVWFGESMTDGFQFEYGGQGSDPADVAIQLTFLRLMSTEASQNITYHCKNSVAYMDQQTGNLKKALLLKGSNEIEIRAEGNSRFTYSVTVDGCTSHTGAWGKTVIEYKTTKSSRLPIIDVAPLDVGAPDQEFGFDVGPVCFL”, for which the protein production entry is listed as “failed”.

Take “DDLLIVRGVNLYPSEIEHAVLDINGVAPYYRIDLYEEDNLDVMELTVERAEGSSKDHSELRDDVLSRLQSVLSFTPDQLNLVNPGTIERTEVGKIQRVYDHRN”: the protein production result is listed as “failed”.

Consider “DDNNAAEVDRQVAQDSAEPKTGENAAAGDSSSTNKNAEKIVAVDISAETEKTYLTHVANDMVIPAYADAAKQSDLLHDLAQKHCQKAPVSGDELQALRDQWLVLAQAWASAEMVNFGPATASMSNLYINYYPDERGLVHGGVADLITANPALTAEQLANESAVVQGIPGLEEALYANDSLDAGQCAYVMSASSALGTRLKDIEKNWQQNAIKLLAIDKTAESDQGLNQWFNSLLSLVETMKSNAIEQPLGLSGKAKGHLPAATAGQSRAIINAKLATLNKAMTDPVLTAILGSNNENTVADTLSTALADTTALLAQMPEDLATADKATQQELYDHLTNITRLIKSQLIPTLGIRVGFNSTDGD”, for which the protein production result is “not failed”.

As for “DDNSYSLGDIWIAVATVVPEGNNVYYLRLDDGDKLWPAATNYPNYQPKPNQRALVNFTILADSTQSNLGGFSHYIKVNAIHNILTKSIAKNEGAANDSIYGTDPVSIYNNNMWIGDGYLNIYFETLWGGKTAHFINLIQPDAENDPYTLEFRHNAYDDPQYTIGAGRVAFNLSSLPDTKGETVDLVVNYWTSEGKQAYKLKYNSDKTKMEDTSQGYTNDSISNITDMK”, the protein production entry is given as “not failed”.

Consider “DEWTDVKKVMALGFFDGVHLGHQAVIKQAKQIAEEKGLQTAVLTFDPHPSVVLSNIRKQVKYLTPLEDKAEKMANLGVDIMYVVRFTTQFSELSPRAFVDNYLVALNVKHVVAGFDYSYGKKGEGKMTELENYANGRFEVTIVDKQTAASDKISSTNIRRAITEGELEEANQLLGYP”, for which the protein production result was “not failed”.

Consider “DGKLYTLNYGKVSSIALDPIEKKPLFHFWPGSCAFSIGTVGCNMHCKHCQNWEISQADESFPYLQDATPESIVRLARHYECESIAYTYNEPTIWYEFVLDTAKLAKKEGLNNILVTNGYINEEPFRELAKYIDAMNIDIKAFNDKFYMKISSVPSGEPSRRTAVIAKKEFGIHVELTYLIIPTLNDNEEEIRRFARWVVEELGDDTPVHFSRFFPHYKLLNLPPTPIQTLEKAYKIAKEEGLKFVYLGNVPGHEGENTYCPRCGKLLIERWGFEILRYEIKDGKCKY”, for which the protein production entry was “failed”.

“DGRCISLLKILMTNFCIFDCAYCVNRVSSRVERARFSVEEVVTLTVEFYRRNYIEGLFLSSGIIRSPDDTMADMVRIAKTLREREHFRGYIHLKTIPDAAPELIEQAGLYADRLSINVELPTEAGLDRFAPEKSATGIRKAMAEVRLKREASREPSFSGRRPSRFA”: the protein production entry is given as “failed”.

Consider “DGVRLLEELGAINAEAKDAKKRLTSIGRQLARLPIDPRLARMVLEAPKYGALKEVMIIAAALSIQDPRERPSDKQQSSDDKHRRFFHEESDFLTFV”, for which the protein production entry was “failed”.

As to “DHPEEGDTAPDFTRPLVNDEFWEDESLASVCADSDRVVLVFHAMDGAFPATYIWNEIRDRAWHEQATVVGISISTPYEHKQLLKEREIEGDYRLFSDPANGVAQQYSIDMALDGMAGIEEPRPSVFVLDSDRTIEYAWVAQEWPDFPDYDDVEAQL”, the protein production result is “failed”.

As for “DIDTFYSKVHNIIGQLINAKNFFIAKYEKDSDTLSFSYYVDEKTSNLAKDFKPRKLSNRYSELVLRRRETVLLTYQEMMSLHLEGETKKPQDDIHSWLGVPLIYSGQLLGVMVLQSYYYKTTYNQQDAELLNFVSNHVSAAIKRRELAD”, the protein production entry was “failed”.

Regarding “DIQVITQTGVPGQPLNFKAEPESETSILLSWTPPRSDTIANYELVYKDGEHGEEQRITIEPGTSYRLQGLKPNSLYYFRLAARSPQGLGASTAEISARTMQS”, the protein production result is recorded as “not failed”.

For the sequence “DKDNTDEPKETAKALGKLASESKKEILLESAYLIFDDNQLKGWQALINTGVEIKALTNSMASNDLTTNHSGYAGRRQDMLEHGIQLYELKPETELCEESTKDVSKCAPILPYGLHAKSAVFDDKIASIGSFNFNLRSTYLNTESILIIENQKIAEQLTQDIEHAMDEENSWHLKLQEGDVRWYSGDKSWESEPETGRWERFQSGFLQLLPIE”, the protein production entry is “failed”.

Take “DLLDPETWQFIRDSARHFPPDSDRLPLAEQRALHAGLCRAFRAPLPPDVTLTDRTFGTRPCRLYEPAAPAGTVLFLHGGGFVLGGLDAFDDLCAEIAAGTGLRTVAVDYRLAPEYPHPEDFHDALRAAQAVAQAFPGPLVLMGEDAGGALSASFAHALRGRRALAGQVLVCPMLGGALDRVSALTHATAPMLSRQDVLRMGALRHGGREPAADPTADALRDTDFRGLPPTLIVTAQCDPLTDDGRAYRDAIRAAAGRARWIEEPGLVHGFLRARHRVPRAAASFARILQAASAMAHDR”: the protein production result is given as “failed”.

With “DLNLPIYPVKGYSLTLPVTNSDGAPVSTVLDESYKVAITRFDNRIRVGGMAELSGYEIKLPEKRRETLALVVNDLFPEGGDLSQASFWSGLRPMTPDSTPLIGRTRFDN”, the protein production entry was “failed”.

As to “DNKKIILEFSSPNTNKPLHVGHLRNDVIGESLSRILKAVGAKITKINLINDRGVHICKSMLAYKKFGNGITPEKAFKKGDHLIGDFYVKYNKYSQENENAEKEIQDLLLLWEQKDVSTIELWKKLNKWAIEGIKETYEITNTSFDKIYLESEIFKIGKNVVLEGLEKGFCYKREDGAICIDLPSDSDEKADTKVKQKVLIRSNGTSIYLTQDLGNIAVRTKEFNFEEMIYVVGSEQIQHFKSLFFVAEKLGLSKNKKLIHLSHGMVNLVDGKMKSREGNVIDADNLISNLIELIIPEMTQKIENKESAKKNALNIALGAIHYYLLKSAIHKDIVFNKKESLSFTGNSGPYIQYV”, the protein production result is listed as “failed”.

Regarding “DPKEGVQYEVLSTSLENDGMAPVTEVFALSCGHCRNMENFLPVISQEAGTDIGKMHITFNQSAHIASMFYYAAEMQVDGAPDHAFMEDLFAATQMGEGTTLTEQQEAYSKAFTSRGLVSPYDFNEEQRDTLIKKVDNAKMLSEKSGISSVPTFVVNGKYNVLIGGHDDPKQIADTIRYLLEK”, the protein production entry is recorded as “not failed”.

As to “DQEVRLENRITFQLELVGLERVVRISAKPTKRLQEALQPILAKHGLSLDQVVLHRPGEKQPMDLENPVSSVASQTLVLDTPPDAKMSEARS”, the protein production result is reported as “not failed”.
